# Experiments:
# Test in all cases: filter binding
# Conditions in all cases: Filter binding: 10 mM HEPES, 3 mM MgCl2, 1 mM DTT, 5% glycerol, 100 mM KCl, 0.05 mg/ml tRNA, 5 uM BSA, 30 C 15 min; UV crosslinking: 10 mM HEPES pH 7.9, 3 mM …
# [1] = test system: T1, PTBP3 AUG4 isoform del1-31 (human), O95758-5
# T1 sequence: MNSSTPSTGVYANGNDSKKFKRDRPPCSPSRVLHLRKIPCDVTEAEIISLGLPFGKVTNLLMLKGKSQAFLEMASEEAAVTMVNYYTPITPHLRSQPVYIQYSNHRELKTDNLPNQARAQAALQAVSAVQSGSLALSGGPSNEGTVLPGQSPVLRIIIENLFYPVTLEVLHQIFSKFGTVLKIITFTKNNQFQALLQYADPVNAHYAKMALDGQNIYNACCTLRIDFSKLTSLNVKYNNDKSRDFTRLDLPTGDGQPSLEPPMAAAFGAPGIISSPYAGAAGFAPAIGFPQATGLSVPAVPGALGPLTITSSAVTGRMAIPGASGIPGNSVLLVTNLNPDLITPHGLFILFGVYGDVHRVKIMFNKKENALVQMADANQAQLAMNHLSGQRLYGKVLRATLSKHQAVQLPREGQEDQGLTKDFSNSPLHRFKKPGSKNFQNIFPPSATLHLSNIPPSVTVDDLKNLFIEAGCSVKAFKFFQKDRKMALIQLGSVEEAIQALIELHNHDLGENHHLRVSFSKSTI
# [2] = test system: PTBP3 AUG11 isoform del1-103 (human), O95758-5
# [3] = test system: PTBP3 ΔRRM1 (human), O95758-5
Substance,Kd [1],Kd [2],Kd [3]
CUCUCUCUCUCUCUCUCUCUCUCU [[CUCUCU]4],34.8 nM,43.7 nM,75.8 nM
EMCV IRES,6.4 nM,4.3 nM,6.5 nM
MTDH exon 7 RNA,91.5 nM,63.2 nM,91.1 nM
PV IRES,44.1 nM,23.4 nM,23.6 nM

# — article PMC4477659
